B1: AB-009760 (antibody, V domains shown)
VH: EVQLVQSGAEVKKPGESLKISCKGSGYSFTSYWIGWVRQMPGKGLEWMGIIYPGDSDTRYSPSFQGQVTISADKSISTAYLQWSSLKASDTAMYYCARSRSSDYFDYWGQGTLVTVSS
VL: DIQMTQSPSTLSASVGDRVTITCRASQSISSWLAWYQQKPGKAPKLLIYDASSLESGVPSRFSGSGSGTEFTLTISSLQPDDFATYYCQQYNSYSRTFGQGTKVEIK
B2: AB-009270 (antibody, V domains shown)
VH: QMQLVQSGPEVKKPGTSVKVSCKASGFTFTSSAMQWVRQARGQRLEWIGWIVVGSGNTNYAQKFQERVTITRDMSTSTAYMELSSLRSEDTAVYYCAVNYCSSTSCYDAFDIWGQGTMVTVSS
VL: not shown

Target: SARS-CoV-2 Spike S1 subunit (Sino Biological) (SARS-CoV-2, UniProt P0DTC2 16-685)

| Binder | kon | koff |
| --- | --- | --- |
| B1 | 64100 M⁻¹ s⁻¹ | – |
| B2 | 69000 M⁻¹ s⁻¹ | 0.000208 s⁻¹ |
